The source of these data is paper PMC7563181.

Experiment [1] has as its target membrane-bound GFP (pHR_EGFPligand).
The target is the same in experiment [2]. This is another data set of the same source.
Experiment [3] shares this target. The source holds these as a separate data set.
The target is the same in experiment [4]. This is another data set of the same source.
The target is the same in experiment [5]. The source holds these as a separate data set.
Experiment [6] shares this target. The source holds these as a separate data set.
The target is the same in experiment [7]. The source holds these as a separate data set.

For “LaG17_synNotch_TetRVP64 (synNotch receptor against GFP with a tTA intracellular domain)”, the % dsRed-Express-positive receiver cells after 10, 30, 60, 120 and 180 min of contact with antigen-expressing sender cells (ratio 1:1), flow cytometry 48 h later; 7.3% to 37.3% in experiment [1] turned out to be 37.3%. Moreover, in experiment [2], the Indel formation frequency at the CXCR4 locus (TIDE) after activation by GFP sender cells, receiver cells kept in low FBS (G1 arrest) is 37.4%; the Indel formation frequency at the CXCR4 locus (TIDE) after activation by GFP sender cells, receiver cells kept without FBS (G1 arrest) stood at 31.4%; the Indel formation frequency at the CXCR4 locus (TIDE) after activation by GFP sender cells, receiver cells treated with nocodazole (G2/M arrest) was determined as 34.4%. Further, in experiment [3], the Overall efficiency of indel formation at the CXCR4 locus (TIDE) after activation of receiver cells by GFP sender cells (1:1, 60 min), Experiment 1 came out at 34.5%; the Overall efficiency of indel formation at the CXCR4 locus (TIDE) after activation of receiver cells by GFP sender cells (1:1, 60 min), Experiment 2 was found to be 41.3%; the Overall efficiency of indel formation at the CXCR4 locus (TIDE) after activation of receiver cells by GFP sender cells (1:1, 60 min), Experiment 3 was determined as 45.4%. The % dsRed-Express-positive cells at the first sort of the transduced bulk receiver population after activation with antigen-expressing cells (flow cytometry) in experiment [4] worked out at 10.3%. For the same substance, in experiment [5], the % Activation in Bulk Population (dsRed-Express, 60 min, sender:receiver 1:1) was determined as 31.3% and the % Activation in Clonal Cell Lines (dsRed-Express, 60 min, sender:receiver 1:1) turned out to be 73.5%. In experiment [6], this substance registered a synNotch-mediated fluorophore expression, bulk population before clonal expansion (differs from Table 2) of 34.8% and a synNotch-mediated fluorophore expression, clonal cell line (differs from Table 2) of 73.6%. For the same substance, the % dsRed-Express-positive receiver cells after co-culture with antigen-expressing sender cells at three sender-receiver ratios (5:1, 1:1, 1:5), flow cytometry after 48 h; 7.6% to 40.1% in experiment [7] worked out at 40.1%.
